In the assay the target is fetuin. The experiment in a line: ELISA on coated fetuin, OS-PT at 20 µg/ml, detection with anti-PT serum.

As to “OS-PT conjugate: B. pertussis 186 LOS-derived oligosaccharide coupled to pertussis toxin by reductive amination (oligosaccharide content not specified at the place) (from UniProt P04977 35-269; P04978 28-226; P04979 29-227; P0A3R5 43-152; P04981 35-133)”, the absorbance at A405 nm amounted to 0.117 A405 nm.

These data come from patent publication US9878051.
